This assay concerns the target T1, neuromedin-B preferring receptor (NMB-R) of C6 rodent glioblastoma cells (rodent), P24053.
T1 chain: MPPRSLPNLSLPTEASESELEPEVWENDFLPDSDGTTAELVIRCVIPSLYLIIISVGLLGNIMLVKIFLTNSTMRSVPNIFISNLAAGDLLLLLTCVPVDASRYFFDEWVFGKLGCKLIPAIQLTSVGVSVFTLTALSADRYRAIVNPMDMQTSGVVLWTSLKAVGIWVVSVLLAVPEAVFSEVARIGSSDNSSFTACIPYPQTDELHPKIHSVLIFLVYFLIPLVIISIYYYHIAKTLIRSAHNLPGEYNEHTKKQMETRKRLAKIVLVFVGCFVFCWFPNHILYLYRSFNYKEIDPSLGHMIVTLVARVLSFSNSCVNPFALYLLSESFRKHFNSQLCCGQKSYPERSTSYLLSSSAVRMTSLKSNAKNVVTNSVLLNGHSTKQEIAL
The experiment in a line: 125I-NMB competition, C6 cells.

Where no end group is shown, it is not given here.

B1: p…-NH2 (peptide)
chain: EQRYGNQWAVGHLM-NH2
modifications: also: name truncated at 'p…', N-terminal modification unresolved
For the molecule B1, the IC50 – broadly, the concentration needed to halve the response being measured – came out at 3.36 nM.
